The values that follow come from paper PMC7053772, “Characterization and assembly of the Pseudomonas aeruginosa aspartate transcarbamoylase-pseudo dihydroorotase complex” (PLoS ONE, 2020).

First the molecules themselves.
B1: Pseudomonas aeruginosa aspartate transcarbamoylase catalytic chain (enzyme, Pseudomonas aeruginosa (strain PAO1), UniProt Q59653 1-334, looked up)
chain: MPTDAKRPLQLNDQGQLRHFISLDGLPRELLTEILDTADSFLEVGARAVKKVPLLRGKTVCNVFFENSTRTRTTFELAAQRLSADVISLNVSTSSTSKGETLTDTLRNLEAMAADMFVVRHSDSGAAHFIAEHVSPNVAVINGGDGRHAHPTQGMLDMLTIRRHKGNFEQLSVAIVGDILHSRVARSNMLALKTLGCPDIRVIAPRTLLPIGLEEQYGVRVFTNADEGLKDVDVVIMLRLQRERMQGGLLPSEGEFFKLYGLTEKRLKLAKPDAIVMHPGPINRGVEIESAVADGAQSVILNQVTYGIAIRMAVLSMAMSGQNTQRQLEQEDAE
notes: Aspartate transcarbamoylase (ATCase) catalytic chain of Pseudomonas aeruginosa strain PAO1, gene pyrB; about 36-37 kDa; The pyrB gene was amplified by PCR and put into pETite; Removal of the His tag is not mentioned; also called ATCase; ATCase subunit
B2: Pseudomonas aeruginosa pseudo dihydroorotase (natural protein, Pseudomonas aeruginosa (strain PAO1), UniProt Q51551 1-423, looked up)
chain: MTISIRGARVIDPASDLDQVGDLHIEAGKIVAIGAAPAGFSAQKTLDGAGLVAAPGLVDLSVALREPGYGRKGNVESETRAAAAGGTTSLCCPPYTRPVLDTPAVAELILDRAREAGNAKVYPIGALTRGFGGEQLSELVALRDTGCVAFTNGLHGFASNRILRRALEYAATFDLTVIFTSQDTDLAEGGLAHEGPTASFLGLAGIPETAETVALARNLLLVEQSGVRAHFSQLTSARGIELVAQAQARGLPVTCDVALYQLILTDEALVGFSSLYHVQPPLRTRADREALREAVKNGVVQAIASHHQPHEADAKNAPFAATEPGISGAELLLPLAMTLVQDGLLDLPTLLARLSHGPAQALRLPAGRLAVGQAADLVLFDPQGSTLAGESWYSKGQNSPFVGHCLPGRVRYTLVDGHLTHEG
notes: Dimer by size exclusion chromatography; also called pDHO; pseudo-DHO; source: also co-transformed and co-purified with mutant ATCases

Series [1] has as its target T1, P. aeruginosa ATCase-pDHO complex (Pseudomonas aeruginosa, UniProt Q59653).
T1 construct: gene pyrB; both full-length subunits with N-terminal 6xHis tag (pETite), E. coli BL21(DE3), Ni-purified, mixed 1:1; 37 kDa + 45 kDa, 457 kDa dodecamer; with Dihydroorotase-like protein
T1 sequence (Q59653 1-334): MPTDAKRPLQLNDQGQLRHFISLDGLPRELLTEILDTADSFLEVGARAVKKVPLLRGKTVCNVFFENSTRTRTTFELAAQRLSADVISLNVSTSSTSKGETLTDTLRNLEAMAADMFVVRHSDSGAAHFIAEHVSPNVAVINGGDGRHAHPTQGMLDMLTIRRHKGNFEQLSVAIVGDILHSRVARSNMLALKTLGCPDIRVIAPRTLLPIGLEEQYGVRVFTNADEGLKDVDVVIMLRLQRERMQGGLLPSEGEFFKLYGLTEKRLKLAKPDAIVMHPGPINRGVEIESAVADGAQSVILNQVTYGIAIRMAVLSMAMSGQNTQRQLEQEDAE
T1 sequence (Q51551 1-423 partner): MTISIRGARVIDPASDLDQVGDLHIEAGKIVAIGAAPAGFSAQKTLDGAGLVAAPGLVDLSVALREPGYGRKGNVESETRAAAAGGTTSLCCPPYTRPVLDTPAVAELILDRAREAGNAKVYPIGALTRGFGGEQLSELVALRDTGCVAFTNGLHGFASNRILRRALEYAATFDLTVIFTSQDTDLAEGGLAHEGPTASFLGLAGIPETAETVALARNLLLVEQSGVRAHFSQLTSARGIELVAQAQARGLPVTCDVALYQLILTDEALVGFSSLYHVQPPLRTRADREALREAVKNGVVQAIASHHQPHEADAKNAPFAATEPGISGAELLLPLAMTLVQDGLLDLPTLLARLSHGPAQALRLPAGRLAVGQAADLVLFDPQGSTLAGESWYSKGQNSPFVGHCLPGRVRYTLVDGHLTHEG
Kind of series: colorimetric ATCase assay, carbamoyl phosphate saturation curves. The format is biochemical. The conditions noted are these: 8 mM aspartate, 37°C; PALA 0-500 nM; bisubstrate inhibitor.

Substrate in series [2]: NC(=O)OP(=O)(O)O
The series can be described thus: purified protein. The format is biochemical, Pseudomonas aeruginosa. Conditions: 8 mM aspartate, 50 mM Tris/acetate pH 8.3, 37°C, Hill fit, text b47 prints 2.5 mM, Table 3 (0 ATP series) 0.88 ± 0.03 mM.

Substrate in series [3]: N[C@@H](CC(=O)O)C(=O)O
The series can be described thus: purified protein. The format is biochemical, Pseudomonas aeruginosa. The conditions noted are these: 10 mM carbamoyl phosphate, 50 mM Tris/acetate pH 8.3, 37°C, Hill fit.

Series [4] concerns the target B2. The series can be described thus: SEC; complex reconstituted by mixing equimolar amounts of ATCase and pDHO; Superdex S-200, 50 mM Tris-HCl pH 7.5, 200 mM NaCl; fractions on SDS-PAGE. The conditions noted are these: both partners purified.
Series [5] concerns the molecule itself. The series can be described thus: SEC; each Ni2+ column purified protein applied alone; Superdex S-200, 50 mM Tris-HCl pH 7.5, 200 mM NaCl; 2-mL sample of 5-10 mg/ml; calibrated column. (Size exclusion chromatography separates by hydrodynamic size, large species first.)
Series [6] deals with B1. Kind of series: cell-based or functional assay.

Consider `O=C(O)C[C@H](NC(=O)CP(=O)(O)O)C(=O)O` [N-phosphonacetyl-L-aspartate], for which the “colorimetric ATCase assay, carbamoyl phosphate saturation curves” value in series [1] is reported as “N-phosphonacetyl-L-aspartate is also a potent inhibitor of the of the P. aeruginosa enzyme”.
B1: in the series “purified protein [2]”, the K0.5 came out at 2.8 ± 0.18 mM; the Vmax (commonly the top rate of the reaction or transport when substrate is in excess) was determined as 142 µmol/min/mg; the kcat (usually the maximal rate divided by the concentration of active sites) was 87.6 s⁻¹; the kcat/Km – broadly, the turnover number divided by the Michaelis constant – amounted to 31000 M⁻¹ s⁻¹. Besides, in the series “purified protein [3]”, the K0.5 is recorded as 3.6 ± 0.41 mM, the Vmax turned out to be 183 µmol/min/mg, the kcat was 113 s⁻¹ and the kcat/Km was found to be 31000 M⁻¹ s⁻¹. In series [4], the binding result is listed as “binds”.
Take B2: in series [5], the stoichiometry N (commonly the number of molecules, sites or subunits per partner or assembly) is 2. Also, the “ATCase activity of a fixed amount of ATCase (4 ug) titrated with pDHO (0-24.3 ug); molar ratio of ATCase to pDHO at which the activity levels off” value in series [6] is 0.97 mol pDHO per mol ATCase.
